Experimental data as given in patent US20220380463A1 (Adimab, published 2022).
Where a chain is given by its changes, count along the chain named.

B1: SAD10319_P02_G06 (ADI-48632) (antibody, V domains shown)
VH: QVQLVQSGAEVKKPGASVKVSCKASGYTFTSYAMHWVRQAPGQRLEWMGWINPDTGATVYSQKFQGRVTITRDTSASTAYMELSSLRSEDTAVYYCARDAYHHYFYDVWGQGTLVTVSS
VL: DIVMTQSPDSLAVSLGERATINCKSSQSLLNARTGKNYLAWYQQKPGQPPKLLIYWASTRESGVPDRFSGSGSGTDFTLTISSLQAEDVAVYYCKQSYSRRTFGGGTKVEIK
notes: IgG; also called Ab15
B2: SAD10320_P01_D03 (ADI-57356) (antibody, V domains shown)
VH: QVQLVQSGAEVKKPGASVKVSCKASGFDIKDYYMHWVRQAPGQRLEWMGWIDLENANTIYDAKFQGRVTITRDTSASTAYMELSSLRSEDTAVYYCARDAYGHAFYDVWGQGTLVTVSS
VL: B1 VL with S99H, R100G
notes: IgG; also called Ab63
B3: SAD10320_P02_B05 (ADI-57364) (antibody, V domains shown)
VH: B2 VH with D28N, A104N
VL: B1 VL with S99T, R100H
notes: IgG; also called Ab75
B4: SAD10319_P04_C10 (ADI-57333) (antibody, V domains shown)
VH: B1 VH with S31D, A33S, W50S, P53A, D54G, A57I, V59K, Y101H, H102G, H103R
VL: B1 VL
notes: IgG; also called Ab31
B5: SAD10320_P02_H04 (ADI-57362) (antibody, V domains shown)
VH: B2 VH with D28N, E46D, A104L
VL: B1 VL with Y98H, S99M
notes: IgG; also called Ab73
B6: SAD10320_P01_F02 (ADI-57350) (antibody, V domains shown)
VH: B2 VH with D28N, W47R, A104T
VL: B1 VL with S99W, R100H
notes: IgG; also called Ab56
B7: SAD10320_P01_G01 (ADI-57346) (antibody, V domains shown)
VH: B2 VH with D28N, A104S
VL: B1 VL with S99H, R100L
notes: IgG; also called Ab51
B8: SAD10319_P04_C11 (ADI-57336) (antibody, V domains shown)
VH: B1 VH with T30H, A33E, D54S, A57S, V59K, H102G, H103R, V108H
VL: B1 VL
notes: IgG; also called Ab34
B9: SAD10320_P01_C02 (ADI-57348) (antibody, V domains shown)
VH: B2 VH with D28N, E46D, Y101G, G102H, H103R, A104Y
VL: B1 VL with T34P, K95G, Q96H
notes: IgG; also called Ab54
B10: SAD10319_P04_H12 (ADI-57344) (antibody, V domains shown)
VH: B1 VH with Y32D, A33H, W50S, P53A, D54G, V59K, H102G, V108H
VL: B1 VL
notes: IgG; also called Ab45
B11: SAD10320_P02_C05 (ADI-57365) (antibody, V domains shown)
VH: B2 VH with F27S, D28N, A104S
VL: B1 VL with S99H, R100G
notes: IgG; also called Ab76
B12: SAD10320_P02_B04 (ADI-57273) (antibody, V domains shown)
VH: B2 VH with D28N, W47R, A104G
VL: B1 VL with S99G, R100H
notes: IgG; ADI-57273 is also printed for Ab114; also called Ab70
B13: SAD10319_P03_G07 (ADI-57325) (antibody, V domains shown)
VH: B1 VH with T30D, A33L, N52D, P53A, D54G, V59N, Y101H, H102G
VL: B1 VL
notes: IgG; also called Ab18
B14: SAD10320_P01_F01 (ADI-57345) (antibody, V domains shown)
VH: B2 VH with D28N, L45P, E46A, Y101S, G102H, H103R, A104Y
VL: B1 VL with K95G, Q96H
notes: IgG; also called Ab50
B15: SAD10319_P04_F11 (ADI-57339) (antibody, V domains shown)
VH: B1 VH with S31D, A33N, E46Q, D54Y, A57Y, V59K, A100H, H102G
VL: B1 VL
notes: IgG; also called Ab38
B16: SAD10320_P01_H01 (ADI-57347) (antibody, V domains shown)
VH: B2 VH with D28N, E46D, A104N
VL: B1 VL with S99H, R100K
notes: IgG; also called Ab52
B17: SAD10319_P04_G11 (ADI-48641) (antibody, V domains shown)
VH: B1 VH with S21Y, S31T, A33E, W50S, P53A, D54G, T55D, G56A, A57N, V59K
VL: B1 VL
notes: IgG; also called Ab39
B18: SAD10319_P04_C12 (ADI-57341) (antibody, V domains shown)
VH: B1 VH with S31A, A33D, W47R, N52D, D54I, A57N, V59K, R98H, H102G
VL: B1 VL
notes: IgG; also called Ab41
B19: SAD10319_P04_E12 (ADI-48642) (antibody, V domains shown)
VH: B1 VH with A33P, N52D, P53A, D54G, A57L, V59T, A100H, H103R, V108M
VL: B1 VL
notes: IgG; also called Ab43
B20: SAD10320_P02_A05 (ADI-57363) (antibody, V domains shown)
VH: B2 VH with D28N, A104M
VL: B1 VL with T34P, S99H, R100M
B21: SAD10319_P03_F09 (ADI-57329) (antibody, V domains shown)
VH: B1 VH with T30P, A33P, E46D
VL: B1 VL with L29P
notes: IgG; also called Ab27
B22: SAD10319_P04_E11 (ADI-57338) (antibody, V domains shown)
VH: B1 VH with S31D, A33N, D54Y, A57Y, V59K, A100H, H102G
VL: B1 VL
notes: IgG; also called Ab37
B23: SAD10320_P01_E03 (ADI-57357) (antibody, V domains shown)
VH: B2 VH with D28N, W47R, A104G
VL: B1 VL with S99R, R100H
notes: IgG; also called Ab64
B24: SAD10320_P01_C03 (ADI-57355) (antibody, V domains shown)
VH: B2 VH with D28N, A104S
VL: B1 VL with S99H, R100W
notes: IgG; also called Ab62
B25: SAD10319_P04_B11 (ADI-57335) (antibody, V domains shown)
VH: B1 VH with T30G, A33D, N52D, P53A, D54G, V59K, Y101H, H102G
VL: B1 VL
notes: IgG; also called Ab33
B26: SAD10320_P02_A04 (ADI-57360) (antibody, V domains shown)
VH: B2 VH with D28N
VL: B1 VL with Y98L, S99H
notes: IgG; also called Ab68
B27: SAD10319_P03_G08 (ADI-48638) (antibody, V domains shown)
VH: B1 VH with T30S, A33D, N52D, P53A, D54G, A57F, V59K, H102G, V108H
VL: B1 VL
notes: IgG; also called Ab22
B28: SAD10320_P01_H03 (ADI-57359) (antibody, V domains shown)
VH: B2 VH with D28N, L45P, Y101A, G102H, H103R, A104Y
VL: B1 VL with T34P, G35R, Y98H, S99D
notes: IgG; also called Ab67
B29: SAD10319_P03_E08 (ADI-48637) (antibody, V domains shown)
VH: QVQLVQSGAEVKKPGASVKVSCKASGYTFNDYAMHWVRQAPGQRLEWMGYINGTGATVYSQKFQGRVTITRDTSASTAYMELSSLRSEDTAVYYCARDAYHHYFYDVWSQGTLVTVSS
VL: B1 VL
notes: IgG; also called Ab21
B30: SAD10320_P01_G03 (ADI-57358) (antibody, V domains shown)
VH: B2 VH with D28N, L45P, A104S
VL: B1 VL with S99H, R100W
notes: IgG; also called Ab66
B31: SAD10320_P01_H02 (ADI-57352) (antibody, V domains shown)
VH: B2 VH with D28N, A104S
VL: B1 VL with Y98M, S99H
B32: SAD10320_P01_G02 (ADI-57351) (antibody, V domains shown)
VH: B2 VH with D28N, E46Q, A104S
VL: B1 VL with S99H, R100E
notes: IgG; also called Ab57
B33: SAD10319_P03_G09 (ADI-57300) (antibody, V domains shown)
VH: B1 VH with A33D, N52D, D54H, V59K, H102G, H103R, V108H
VL: B1 VL
notes: IgG; ADI-57300 is also printed for Ab234; also called Ab28
B34: SAD10319_P04_D11 (ADI-57337) (antibody, V domains shown)
VH: QVQLVQSGAEVKKPGASVKVSCKASGYTFNSYRMHWVRQAPGQRLEWMGSIDAGTGNTKYSQKFQGRVTITRDTSASTAYMELSSLRSEDTAVYYCARDAYGRYFYDHWGQGTLVTVSS
VL: B1 VL
notes: IgG; also called Ab35
B35: SAD10319_P03_D08 (ADI-57327) (antibody, V domains shown)
VH: B1 VH with T30Y, A33E, E46D, D54Q, V59K
VL: B1 VL
notes: IgG; also called Ab20
B36: SAD10319_P04_D12 (ADI-57342) (antibody, V domains shown)
VH: B1 VH with E46D, W50Y, A57D, V59K
VL: B1 VL
notes: IgG; also called Ab42
B37: SAD10319_P04_A10 (ADI-57331) (antibody, V domains shown)
VH: B1 VH with Y32D, E46A, W50Y, P53A, D54G, A57T, V59K, R98H, H102G
VL: B1 VL
notes: IgG; also called Ab29
B38: SAD10319_P03_H08 (ADI-57328) (antibody, V domains shown)
VH: B1 VH with T30K, A33D, L45P, P53A, D54G, A57N, H103R
VL: B1 VL
notes: IgG; also called Ab23
B39: SAD10319_P04_F12 (ADI-57343) (antibody, V domains shown)
VH: B34 VH with S31D, R33A, E46D, S50W, D52N, A53P, G54D, K59N, A100H
VL: B1 VL
notes: IgG; also called Ab44
B40: SAD10319_P03_H07 (ADI-57326) (antibody, V domains shown)
VH: B1 VH with T30N, A33D, D54Y, A57E, V59K, A100H, H102G
VL: B1 VL
notes: IgG; also called Ab19

Target: T1, Cynomolgus CD3εδ Fc heterodimer (Cy CD3ε Fc / CD3δ Fc-HIS) (cynomolgus, UniProt Q95LI8 22-100)
T1 chain 1: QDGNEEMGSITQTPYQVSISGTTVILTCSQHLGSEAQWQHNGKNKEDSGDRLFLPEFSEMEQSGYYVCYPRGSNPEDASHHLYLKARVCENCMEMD
T1 chain 2: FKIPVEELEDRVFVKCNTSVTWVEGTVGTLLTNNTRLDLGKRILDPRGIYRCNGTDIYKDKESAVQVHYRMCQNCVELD
Test: BLI (Octet), IgG on AHC sensor, pH 6.0

Binder	koff [s⁻¹]
B1	0.0242
B2	0.00263
B3	0.00269
B4	0.00124
B5	0.0278
B6	0.0194
B7	0.0144
B8	0.00317
B9	0.00277
B10	0.0047
B11	0.0207
B12	0.0176
B13	0.0187
B14	0.00642
B15	0.00202
B16	0.0207
B17	0.00317
B18	0.0196
B19	0.00307
B20	0.0168

Binder	koff [s⁻¹]
B21	0.0199
B22	0.0239
B23	0.0223
B24	0.0195
B25	0.00273
B26	0.0182
B27	0.0168
B28	0.00291
B29	0.0197
B30	0.0215
B31	0.00334
B32	0.0197
B33	0.0219
B34	0.00339
B35	0.02
B36	0.012
B37	0.0262
B38	0.00348
B39	0.0162
B40	0.0201
